Source: the supplement of paper PMC12764529
± gives the half width of the 95% confidence interval.

Experiment: folding stability dG unfold from chymotrypsin proteolysis; higher = more stable
Summary of the method: (§1)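 How resistant each design was to proteolysis was captured as K50, inferred by Bayesian fitting of sequencing counts. Unfolding free energy was then derived relative to a sequence-predicted unfolded-state K50 and a shared folded-state K50, per protease or combined. Digestion used trypsin and chymotrypsin at 11 threefold-diluted concentrations plus a no-protease condition, on mini-proteins under 80 residues without cysteine in a PA-tagged cDNA display construct. Designs were kept only when AlphaFold2 dimer inter-PAE was above 15.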
For “SAGGDNFKIEIQFFPDGHIFILIKWPNGDWILIPVPIEYPVPKRDPDGEVKEPGPVTHTHLFLIPANDSAGG [r13_236_TrROS]”, the “folding stability dG unfold” value was 3.21 ± 0.046 kcal/mol.
With “SAGGSAGGSAGGPGWRTIEFWIPVDDFLDEIKLPPGITPIRIIKPNPNGYVRIMIIYPYSAGGSAGGSAGGS [r10_352_TrROS]” the “folding stability dG unfold” value was 3.05 ± 0.059 kcal/mol.
In the case of “SAGMVTYTVTVPYAPAGKRVRVTLFDEGKEIASFEGVENAPYNQTFTFTAPPFTIRIEYEDGSVDPLPASAG [r5_646_TrMRF]”, the “folding stability dG unfold” value is reported as 4.05 ± 0.058 kcal/mol.
For “SAGGSAGGSSSVTPVPETTLVTLTPPDGSPPVLGTVFPATGTMLLFYPDSVLLLPLGPGTTLFSAGGSAGGS [r12_536_JUSTAS]”, the “folding stability dG unfold” value was 0.503 ± 0.08 kcal/mol.
In the case of “SAGGSAGGAFTVTLPDGRPVRVRLLGATFTFEVRIPPGVPDVVPGAKPDEVVKVTRVVLVVSLDSAGGSAGG [r6_907_TrMRF]”, the “folding stability dG unfold” value is reported as 4.57 ± 0.096 kcal/mol.
With “SAGGKTVEVEFEAPESLSPEEIAAAILAAAPPGYFVKVEEVEVRDRPDGEKVILYKATFYDPDTGDFDSAGG [r13_12_TrMRF]” the “folding stability dG unfold” value was 2.804 ± 0.021 kcal/mol.
In the case of “SAGGSAGGSAGGMTVERREVFPLGESLVITETREVLDPSSDVPVTVETRVEVLPPEVPPSAGGSAGGSAGGS [r10_599_JUSTAS]”, the “folding stability dG unfold” value is reported as 0.25 ± 0.12 kcal/mol.
For “SAGGPGAEIWFIKIPIEIEMKMKRKRENDPDGNPRPEWEMEMKIEIPIEIYPIRVRLDPDGKIKSIEFSAGG [r13_148_TrROS]”, the “folding stability dG unfold” value was 4.3 ± 0.11 kcal/mol.
With “SAGGSAVIEFELELRTRPDGSVEEEEIIAEARELIEAIPEAENAEILEIRREAFPDGTVRYHVRVRVPSAGG [r13_462_TrMRF]” the “folding stability dG unfold” value was 3.01 ± 0.036 kcal/mol.
With “SMKEPPKVTIEIEYDEETETVRVRITLEDGTEIEVEVEAENKEEALREAIREALKKIFPELTDEQIEKLLSA [r9_634_TrROS_Hall]” the “folding stability dG unfold” value was 1.58 ± 0.11 kcal/mol.
For “SAGGMTLEELKAKITKVEVEEREDGSLKLRLTIKVKNEDGSEEEIELTITLPEEEKNMSLEELLEKLLSAGG [r13_319_TrROS_Hall]”, the “folding stability dG unfold” value was 3.82 ± 0.12 kcal/mol.

Experiment: folding stability dG unfold (combined trypsin and chymotrypsin); higher = more stable
Summary of the method: as §1
In the case of “SAGGSAGGSAGMKSTVTQPGDTWTITITDPETGEVTTYTLTPAQLGELAASSRPVAVAPGSAGGSAGGSAGG [r11_741_JUSTAS]”, the “folding stability dG unfold” value is reported as 1.24 ± 0.058 kcal/mol.
With “SAGGSAGGSAGPITYRLEIRYEIERIEVRVYPGPEGPLVGEFRIEVRLEVRVEALPPEETSAGGSAGGSAGG [r11_24_TrMRF]” the “folding stability dG unfold” value was 4.53 ± 0.16 kcal/mol.
In the case of “SMSMEEAMEWAEENPDRPVIFINPEDWYIMIYNPKKGKMEMRPITSPEEALEELDDENIDRIYIVPADEISA [r9_775_TrROS]”, the “folding stability dG unfold” value is reported as 1.96 ± 0.088 kcal/mol.
With “SKPILKIKINIPVLKDKNGKEIIPSPNDVLAALEKLGIPVDKAEITKIGKNTIPILILVDLVDGKAYVKDSA [r9_225_TrMRF]” the “folding stability dG unfold” value was 1.13 ± 0.1 kcal/mol.
For “SAGGSEVETVKVKIKVKIDGKVYEVEAEVEVFTDEDGRKVLRITLPDGRVVEIPLEDADKIEEIEVSAGGSA [r2_297_TrROS_Hall]”, the “folding stability dG unfold” value was 4.25 ± 0.087 kcal/mol.
In the case of “SAGGSAGGRFTVQFRVPGTLEEAREKAEEIAENLPPNFKDVEVDIEPHPKNGWIRVEVQIKMKKSAGGSAGG [r6_164_TrROS]”, the “folding stability dG unfold” value is reported as 1.01 ± 0.31 kcal/mol.
In the case of “SAGGSAGGSAGLFIPETGLLVVYDPAPGTLHVFRITGGDGLEIEPVGEVEVDPDNPELGTAFSAGGSAGGSA [r18_448_TrMRF]”, the “folding stability dG unfold” value is reported as 0.327 ± 0.18 kcal/mol.
With “SAGGSAGGSAGGKKYKIKVYVKDKKTKKWKKIKEIEVDTKEEALEAIKKLPPNYEVKIVPSAGGSAGGSAGG [r7_307_TrROS_Hall]” the “folding stability dG unfold” value was 4.91 ± 0.14 kcal/mol.
In the case of “SAGGSAGGATTEINLPLKVPGSGVTITKMTYDPNKDVYFVTATFPDGTKKTIKVKSLEELKKLLSAGGSAGG [r6_548_JUSTAS]”, the “folding stability dG unfold” value is reported as 3.11 ± 0.15 kcal/mol.
For “SAGGSAGGSAGGSMVIRNENGYLIEVKTEVVVDEETKKKYVKTEIRIYKEGEEKELPEESAGGSAGGSAGGS [r4_48_TrROS_Hall]”, the “folding stability dG unfold” value was 1 ± 0.22 kcal/mol.
In the case of “SKMKVIKTFENKETGEKIVIVKDEKTKKYYIFIYNKDGELVEKIEVEPGETITLPNGKTITIKEGDVIEFSA [r9_340_TrROS_Hall]”, the “folding stability dG unfold” value is reported as 4.35 ± 0.087 kcal/mol.
In the case of “SAGGSAGGSAGGPWYVRIEYTPPNGNKETFIIPSPEEIDEWAEPFGVPVKIEPIPPGDPISAGGSAGGSAGG [r7_456_TrROS]”, the “folding stability dG unfold” value is reported as 0.736 ± 0.091 kcal/mol.
With “SAGGSAGGVERIKKLLEELGAEVVKVEKLENGKTLIYIKVKSEEQREALKALLPEEDIEIIEPESAGGSAGG [r6_83_TrROS_Hall]” the “folding stability dG unfold” value was 4.43 ± 0.17 kcal/mol.
With “SAGGSAGGSAEPPPLVVVTEVRTITVEIDLDDLSEEEREALENLDTVTITVTRVVVVPREDLSAGGSAGGSA [r18_127_TrROS_Hall]” the “folding stability dG unfold” value was 1.84 ± 0.46 kcal/mol.
For “SAGGSAGGSAGGSAMTLLSEEELPDGSRRVLMRFPDGTRMELTVHPDGSVEERVTPPAASAGGSAGGSAGGS [r4_483_JUSTAS]”, the “folding stability dG unfold” value was 2.72 ± 0.086 kcal/mol.
With “SAGGSAGGSAGMKIKTKNGEVIEIKVDKKTGKIEITFPDGKKITIDAPNLTIEDIKKLLESAGGSAGGSAGG [r11_729_TrMRF]” the “folding stability dG unfold” value was 2.36 ± 0.051 kcal/mol.
With “SAGGSAMVVTVPASSLTPESIRALARENPGPVELVFPEEGRRVTVEVRGDGVVRVEEHPLDPAELASAGGSA [r15_751_JUSTAS]” the “folding stability dG unfold” value was -0.621 ± 0.083 kcal/mol.
With “SAGGSKMPPGYKMIPIEIPFRTPEDLEQAINFAEELAREGFTIIDIDVEIPEGDNYRVEFHIMLPYSAGGSA [r2_350_TrROS]” the “folding stability dG unfold” value was 2.31 ± 0.1 kcal/mol.
With “SMTTRESTIDASIPGYTVSKVSVTTLPGGERKITITLPSGKVLVLSTPADPALVPLTVTSEFSPEEVAAKSA [r9_1075_JUSTAS]” the “folding stability dG unfold” value was 0.395 ± 0.051 kcal/mol.
For “SAGGSALRIPPGEKIKVRNPDNGKPFEFKVTNWQMNPNGNAYFQVEMTSDGKKVKWPIPLDDIEVVSAGGSA [r15_62_TrROS]”, the “folding stability dG unfold” value was 0.0757 ± 0.28 kcal/mol.
With “SAGTREQVKAIAREIANEIWDTFPDMRGQKFKVKIKVEPEPNGWVRVKVTIQFPGGVQYTFPIWIPVESAGG [r19_194_TrROS]” the “folding stability dG unfold” value was 4.05 ± 0.23 kcal/mol.
